According to article PMC9029106:

Biological target: SKP2 (UniProt Q13309)
Assay: co-IP, blot for Myc and p27
Details: reference: wild-type p27; sites T187

binding against the reference: lost
Substance: p27 (Kip1) (from UniProt P46527) p27 T187A
